Test [1] has as its target His-SUMO-tagged MLL3 SET domain (UniProt Q8NEZ4). Briefly: pull-down.
Test [2] has as its target Ash2L SPRY domain (UniProt Q9UBL3). Briefly: isothermal titration calorimetry. Particulars: reference: unmodified RbBP5 344-357 peptide; sites S350.
The target in test [3] is Ash2L SPRY domain. Kind of test: ITC.

Square brackets hold non-standard residues; d marks the D form. Ends that are not written are not given here. pS = N[C@@H](COP(=O)(O)O)C(=O)O

Sequence of UniProt Q8NEZ4 (Q8NEZ4 4771-4887): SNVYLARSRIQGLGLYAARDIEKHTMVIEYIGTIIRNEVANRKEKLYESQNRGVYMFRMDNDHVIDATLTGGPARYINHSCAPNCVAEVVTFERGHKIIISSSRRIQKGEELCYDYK
Sequence of UniProt Q9UBL3 (Q9UBL3 380-598): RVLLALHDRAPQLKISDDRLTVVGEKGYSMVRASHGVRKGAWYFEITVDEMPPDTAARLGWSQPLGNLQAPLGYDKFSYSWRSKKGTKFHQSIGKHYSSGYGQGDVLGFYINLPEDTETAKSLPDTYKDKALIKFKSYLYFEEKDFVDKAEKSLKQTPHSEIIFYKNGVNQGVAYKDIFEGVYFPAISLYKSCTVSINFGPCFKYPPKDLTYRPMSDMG

In test [1], “Ash2L/RbBP5^phos heterodimer (from UniProt Q9UBL3 1-628; Q15291 1-538) (complex)” displayed a fold increase in binding against Ash2L/RbBP5 of 5 fold.

For the molecule “RbBP5 344-357 (from UniProt Q15291) pS350 RbBP5 344-357 peptide”, the fold change entry in the test with Ash2L SPRY domain [2] is “stronger”.

B1: phosphorylated peptide RbBP5 344-357 (phospho-S350), Q15291 344-357 (peptide)
peptide: EYEERE[pS]EFDIEDE
In the test with Ash2L SPRY domain [3], B1 had a fold higher affinity against the unmodified peptide of 15 fold.

For the origin of these results see publication PMC4298132.
